Experiments:
[1] = target: T1, human neutrophil elastase (HNE) (Homo sapiens, UniProt P08246 30-267); assay: enzyme inhibition; details: elastin-Congo red, 90% for E6 and E12, ELISA: PBS pH 7.4, 5 mM MgCl2, 10 mM KCl, 0.01% Tween 20, 20 min (temperature not stated), inhibition: 50 mM Tris pH 7.5, 150 mM NaCl, 5 mM MgCl2, 0.
[2] = target: T1, human neutrophil elastase (HNE); assay: ELISA; HNE immobilized; ELISA: PBS pH 7.4, 5 mM MgCl2, 10 mM KCl, 0.01% Tween 20, 20 min (temperature not stated); inhibition: 50 mM Tris pH 7.5, 150 mM NaCl, 10 mM KCl, 5 mM MgCl2, 0.02% Tween 20, 37 C; details: protein: commercial; for Kd: label: biotin (ELISA)
[3] = target: T1, human neutrophil elastase (HNE); assay: enzyme inhibition; elastin-Congo red, 100 nM HNE; E6/E12 values swapped in a second sentence; ELISA: PBS pH 7.4, 5 mM MgCl2, 10 mM KCl, 0.01% Tween 20, 20 min (temperature not stated); inhibition: 50 mM Tris pH 7.5, 150 mM NaCl, 10 mM KCl, 5 mM MgCl2, 0.02% Tween 20, 37 C; details: protein: commercial, label: biotin (ELISA)
[4] = target: T1, human neutrophil elastase (HNE); assay: enzyme inhibition; DQ gelatin substrate; competitive; ELISA: PBS pH 7.4, 5 mM MgCl2, 10 mM KCl, 0.01% Tween 20, 20 min (temperature not stated); inhibition: 50 mM Tris pH 7.5, 150 mM NaCl, 10 mM KCl, 5 mM MgCl2, 0.02% Tween 20, 37 C; details: protein: commercial, label: biotin (ELISA)
[5] = predicted: 1 G4, 3 hairpin loops (not tested)
[6] = predicted: 2 G4, 2 hairpin loops (not tested)

T1 sequence (P08246 30-267): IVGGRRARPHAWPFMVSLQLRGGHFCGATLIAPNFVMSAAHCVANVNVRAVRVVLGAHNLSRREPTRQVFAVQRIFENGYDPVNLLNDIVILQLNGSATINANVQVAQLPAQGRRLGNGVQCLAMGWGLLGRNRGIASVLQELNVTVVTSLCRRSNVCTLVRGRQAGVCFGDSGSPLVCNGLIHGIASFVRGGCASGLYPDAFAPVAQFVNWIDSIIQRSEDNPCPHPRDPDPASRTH

Q: With dsDNA 24-mer as the molecule, how does the binding signal [1] read?
A: 10 % inhibition

B1: aptamer E6 (ssDNA)
DNA: CATGCTTCCCCAGGGAGATGAGGACGGGCGTGGGGATGGGTATGGTGCAACTCCCGAGGAACATGCGTCGCAAAC
Q: For B1, which Kd [2, 5] is on record?
A: 20.5 nM

Q: And the IC50 [3, 5]?
A: 173 nM

Q: What about the Ki [4, 5] of the same molecule?
A: 52 ± 6 nM

B2: NC nonspecific ssDNA (ssDNA)
DNA: CATGCTTCCCCAGGGAGATGAACCCTTTGGGAAACCCTTTGGGAAACCCTTTGGGGAGGAACATGCGTCGCAAAC
Q: Does B2 bind ([2]; label: 5' biotin (ELISA))?
A: no binding

B3: aptamer E12 (ssDNA)
DNA: CATGCTTCCCCAGGGAGATGGGCGTGGGGGTTGGGTATGGTGCTTGAGGGGCCTGGAGGAACATGCGTCGCAAAC
Q: How did the Kd [2, 6] turn out when B3 was run?
A: 13.9 nM

Q: And the IC50 [3, 6]?
A: 178 nM

Q: And the Ki [4, 6]?
A: 22 ± 1 nM
